# Experimental data from US20230287096A1 (published 2023).
# T1: FAM19A5 epitope fragment F2, conjugated to BSA (human, conjugated to BSA)
# T1 peptide: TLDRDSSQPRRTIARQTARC
# T2: F2-01-BSA (#1) (human, conjugated to BSA)
# T2 construct: also called mutant F2 peptide fragment #1
# T2 peptide: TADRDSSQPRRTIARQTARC
# T3: F2-02-BSA (#2) (human, conjugated to BSA)
# T3 construct: also called mutant F2 peptide fragment #2
# T3 peptide: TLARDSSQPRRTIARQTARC
# T4: F2-03-BSA (#3) (human, conjugated to BSA)
# T4 construct: also called mutant F2 peptide fragment #3
# T4 peptide: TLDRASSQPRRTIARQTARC
# T5: F2-04-BSA (#4) (human, conjugated to BSA)
# T5 construct: also called mutant F2 peptide fragment #4
# T5 peptide: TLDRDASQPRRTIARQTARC
# T6: F2-05-BSA (#5) (human, conjugated to BSA)
# T6 construct: also called mutant F2 peptide fragment #5
# T6 peptide: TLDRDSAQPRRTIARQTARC
# T7: F2-06-BSA (#6) (human, conjugated to BSA)
# T7 construct: also called mutant F2 peptide fragment #6
# T7 peptide: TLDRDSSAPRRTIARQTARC
# T8: F2-07-BSA (#7) (human, conjugated to BSA)
# T8 construct: also called mutant F2 peptide fragment #7
# T8 peptide: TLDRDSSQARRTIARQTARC
# T9: F2-08-BSA (#8) (human, conjugated to BSA)
# T9 construct: also called mutant F2 peptide fragment #8
# T9 peptide: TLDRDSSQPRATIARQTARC
# T10: F2-09-BSA (#9) (human, conjugated to BSA)
# T10 construct: also called mutant F2 peptide fragment #9
# T10 peptide: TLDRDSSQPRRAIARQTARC
# T11: F2-10-BSA (#10) (human, conjugated to BSA)
# T11 construct: also called mutant F2 peptide fragment #10
# T11 peptide: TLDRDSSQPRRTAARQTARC
# T12: F2-11-BSA (#11) (human, conjugated to BSA)
# T12 construct: also called mutant F2 peptide fragment #11
# T12 peptide: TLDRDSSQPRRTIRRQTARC
# T13: F2-12-BSA (#12) (human, conjugated to BSA)
# T13 construct: also called mutant F2 peptide fragment #12
# T13 peptide: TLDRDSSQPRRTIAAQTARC
# T14: F2-13-BSA (#13) (human, conjugated to BSA)
# T14 construct: also called mutant F2 peptide fragment #13
# T14 peptide: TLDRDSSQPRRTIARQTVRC
# What was measured:
# [1] = biological target: Recombinant human FAM19A5 protein (human, UniProt Q7Z5A7 44-132); experiment: ELISA
# [2] = biological target: T1, FAM19A5 epitope fragment F2, conjugated …; experiment: ELISA, BSA-conjugated peptide coated on plate
# Method: Overlapping peptide fragments (F1-F6, See FIG. 1) of the human FAM19A5 protein were synthesized and conjugated to BSA. Binding of the different anti-FAM19A5 antibodies to the BSA-conjugated peptide fragments F1-F6 was determined by ELISA assay. Briefly, FAM19A5 fragment F1-F6 (diluted to 1 μg/mL in 50 mM carbonate buffer (Biosesang) or to 20 μg/mL for high concentration analysis) were used to coat the wells of 96-well immuno plates (Thermo Scientific) (100 μL/well) overnight at 4° C. and then subsequently washed twice in 1×PBS. The plates were then blocked with the blocking buffer (100 μL/well) for 1 hour at room temperature. During the 1-hour incubation, the relevant anti-FAM19A5 antibodies were diluted to 1 μg/mL (or 20 μg/mL for high concentration analysis) in the diluent buffer. Once the plates were washed (2×using 1×PBS), the diluted anti-FAM19A5 antibodies were added to the appropriate wells, and the plates were incubated at room temperature for 1 hour. The plates were subsequently washed for a total of five times using the washing buffer. […] The absorption value of each of the wells was detected at 492 nm using a 96-well microplate reader (Molecular Device).
# F2-01-BSA (#1) = biological target: T2, F2-01-BSA (#1); experiment: ELISA, BSA-conjugated mutant F2 peptide coated on plate
# F2-02-BSA (#2) = biological target: T3, F2-02-BSA (#2); experiment: as above
# F2-03-BSA (#3) = biological target: T4, F2-03-BSA (#3); experiment: as above
# F2-04-BSA (#4) = biological target: T5, F2-04-BSA (#4); experiment: as above
# F2-05-BSA (#5) = biological target: T6, F2-05-BSA (#5); experiment: as above
# F2-06-BSA (#6) = biological target: T7, F2-06-BSA (#6); experiment: as above
# F2-07-BSA (#7) = biological target: T8, F2-07-BSA (#7); experiment: as above
# F2-08-BSA (#8) = biological target: T9, F2-08-BSA (#8); experiment: as above
# F2-09-BSA (#9) = biological target: T10, F2-09-BSA (#9); experiment: as above
# F2-10-BSA (#10) = biological target: T11, F2-10-BSA (#10); experiment: as above
# F2-11-BSA (#11) = biological target: T12, F2-11-BSA (#11); experiment: as above
# F2-12-BSA (#12) = biological target: T13, F2-12-BSA (#12); experiment: as above
# F2-13-BSA (#13) = biological target: T14, F2-13-BSA (#13); experiment: as above
# Sequence of Recombinant human FAM19A5 protein (Q7Z5A7 other isoform, or with tags, fused parts or gaps): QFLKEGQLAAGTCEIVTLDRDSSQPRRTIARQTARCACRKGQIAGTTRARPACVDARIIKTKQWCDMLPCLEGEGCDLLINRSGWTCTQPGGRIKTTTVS
Kd [1] [nM],binding result [2],binding result (F2-01-BSA (#1)),binding result (F2-02-BSA (#2)),binding result (F2-03-BSA (#3)),binding result (F2-04-BSA (#4)),binding result (F2-05-BSA (#5)),binding result (F2-06-BSA (#6)),binding result (F2-07-BSA (#7)),binding result (F2-08-BSA (#8)),binding result (F2-09-BSA (#9)),binding result (F2-10-BSA (#10)),binding result (F2-11-BSA (#11)),binding result (F2-12-BSA (#12)),binding result (F2-13-BSA (#13)),Binder
~2.77,,,,,,,,,,,,,,,"Anti-FAM19A5 antibody 2-13 (antibody, V domains shown, Chicken-derived scFv clone converted to a full antibody; also called Anti-FAM19A5 (""2-13"")) VH: AVTLDESGGGLQTPGGALSLVCKASGFTFSSHGMFWVRQTPGKGLEYVAEITNDGSGTNYGSAVKGRATISRDNGQSTVRLQLNNLRAEDTGTYFCARSTYECPGGFSCWGDTGQIDAWGHGTEVIVSS VL: ALTQPSSVSANPGETVKITCSGGSYSYGWFQQKSPGSALVTVIYWDDERPSDIPSRFSGALSGSTNTLTITGVQADDEAVYFCGTEDISGTAGVFGAGTTLTVL"
0.12,binds,binds,binds,binds,binds,binds,binds,binds,binds,binds,binds,binds,binds,binds,"Anti-FAM19A5 antibody 3-2 (antibody, V domains shown, The text reports the results for '3-2' without separating them, so one molecule is written; Only the variable domains are tied to the name; also called h3-2; m3-2) VH: not shown VL: ALTQPSSVSANPGETVKITCSGGGSYAGSYYYGWYQQKAPGSAPVTLIYESNKRPSDIPSRFSGSTSGSTATLTITGVQADDEAIYYCGSWDSSNGGIFGAGTTLTVL"
0.17,,binds,binds,,binds,binds,binds,binds,binds,binds,binds,binds,binds,binds,"Anti-FAM19A5 antibody 1-28 (antibody, V domains shown, also called Anti-FAM19A5 (""1-28"")) VH: AVTLDESGGGLQTPGGALSLVCKASGFDFSDYGMGWVRQAPGKGLEWVAAIRSDGSNPSYGSAVKGRATISKDNGRSTVRLQLNNLRAEDTATYYCAKDGNGYCALDAYRSGGYSCGVYPGSIDAWGHGTEVIVSS VL: ALTQPSSVSANLEGTVEITCSGSGYGYGWYQQKSPGSAPVTVIYQNDKRPSDIPSRFSGSKSGSTGTLTITGVQVEDEAVYYCGSEDSSTLAGIFGAGTTLTVL"
0.1,,,,,,,,,,,,,,,"Anti-FAM19A5 antibody 1-65 (antibody, V domains shown, VL = 39 to 42)) VH: AVTLDESGGGLQTPGGALSLVCKASGFTFSSYQMGWVRQAPGKGLEWVGVINKSGSDTSYGSAVKGRATISRDNGQSTVRLQLNNLRAEDTGTYFCAKGSASYITAATIDAWGHGTEVIVSS VL: ALTQPSSVSANPGETVKITCSGGGSSGYGYGWYQQKSPSSAPLTVIYWNDKRPSDIPSRFSGSKSGSTHTLTITGVQAEDEAVYFCGNDDYSSDSGYVGVFGAGTTLTVL"
